The values that follow come from paper PMC6813310.

Test [1] deals with M2-1 fused to GFP, expressed by the recombinant virus RSV-M2-1-GFP (human respiratory syncytial virus, strain Long). As to the kind of experiment: co-IP; GFP-Trap beads on lysates of HEp-2 cells infected with RSV-M2-1-GFP, 14 h p.i., without RNAse in the lysis; immunoblot. On the technique in general: Immunoblotting shows a protein as a band on a membrane.
For test [2] the target is unchanged. Nature of the test: co-IP; GFP-Trap beads on lysates of HEp-2 cells infected with RSV-M2-1-GFP or RSV-GFP (control), 14 h p.i., with RNAse (RNAse A or broad-spectrum nuclease) in the lysis; Tris 10 mM pH 7.5, NaCl 150 mM, IGEPAL CA-630 0.5%; overnight at 4 °C; immunoblot.
The target in test [3] is M2-1 fused to the N2 complementation fragment of NanoLuc (human respiratory syncytial virus, strain Long). Nature of the test: split reporter (BiFC, NanoBiT); NanoLuc two-hybrid (N2H) complementation in HEK293T cells, 24 h after transfection; lysates incubated 1 h with 100 µg/ml RNAse A; normalized luminescence ratio (NLR) over control protein pairs.

With “cytoplasmic polyA-binding protein 1 (PABPC1), endogenous in HEp-2 cells (from UniProt P11940 1-636) (natural protein)”, the percent of total PABPC1 in the input co-immunoprecipitated in test [1] came out at 5.71%; in test [2], 2.08%.

In the case of “PABPC1 fragment 492-636 fused to the N1 fragment of NanoLuc (from UniProt P11940 492-636) (domain or fragment)”, the NLR as percent of the signal of the whole PABPC1 in test [3] came to 50%.
